Patent publication US20150158947A1 (COMPUGEN, published 2015)
Substitutions are numbered along the chain they refer to. Several values for one entry are separate records, joined by “and”; a condition that tells them apart may be missing. Equal entries are not always repeated.

T1: C1ORF32-ECD-mIgG2a fusion protein (SEQ ID NO: 24)
T1 chain: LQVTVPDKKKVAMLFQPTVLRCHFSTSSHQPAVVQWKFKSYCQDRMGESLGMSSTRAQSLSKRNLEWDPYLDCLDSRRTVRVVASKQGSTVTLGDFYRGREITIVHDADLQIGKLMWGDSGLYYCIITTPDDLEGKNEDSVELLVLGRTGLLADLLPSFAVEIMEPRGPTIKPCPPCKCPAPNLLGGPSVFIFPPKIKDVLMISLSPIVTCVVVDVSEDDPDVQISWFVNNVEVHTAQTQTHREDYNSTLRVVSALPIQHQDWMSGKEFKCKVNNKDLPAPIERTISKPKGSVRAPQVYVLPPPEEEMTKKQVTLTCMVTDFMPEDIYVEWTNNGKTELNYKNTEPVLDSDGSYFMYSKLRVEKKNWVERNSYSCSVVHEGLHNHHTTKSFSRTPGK

T2: C1ORF32-ECD-mouse IgG2a-fused protein (SEQ ID NO: 4) (human C1ORF32 ECD, mouse IgG2a Fc)
T2 construct: Purified recombinant fusion protein; also called C1ORF32-ECD-mouse IgG2a fusion protein; recombinant ECD-mIgG2a fusion protein
T2 chain: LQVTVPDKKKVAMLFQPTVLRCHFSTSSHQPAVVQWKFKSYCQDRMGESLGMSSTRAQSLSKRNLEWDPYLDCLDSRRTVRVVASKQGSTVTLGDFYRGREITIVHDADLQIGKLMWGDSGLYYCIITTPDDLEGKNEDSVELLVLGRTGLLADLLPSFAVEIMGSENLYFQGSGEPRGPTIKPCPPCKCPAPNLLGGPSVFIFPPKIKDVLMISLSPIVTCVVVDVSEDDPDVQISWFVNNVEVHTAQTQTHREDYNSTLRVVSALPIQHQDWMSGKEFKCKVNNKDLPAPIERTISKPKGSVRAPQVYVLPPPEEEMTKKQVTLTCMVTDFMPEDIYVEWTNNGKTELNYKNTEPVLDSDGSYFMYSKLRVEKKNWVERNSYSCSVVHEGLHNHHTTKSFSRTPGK

T3: human C1ORF32 protein (SEQ ID NO: 1) (human, UniProt Q71H61 21-234)
T3 construct: Stained on cells in flow cytometry and IHC, and probed in whole-cell lysates in Western blots; also called ILDR2; short isoform of human C1ORF32
T3 sequence: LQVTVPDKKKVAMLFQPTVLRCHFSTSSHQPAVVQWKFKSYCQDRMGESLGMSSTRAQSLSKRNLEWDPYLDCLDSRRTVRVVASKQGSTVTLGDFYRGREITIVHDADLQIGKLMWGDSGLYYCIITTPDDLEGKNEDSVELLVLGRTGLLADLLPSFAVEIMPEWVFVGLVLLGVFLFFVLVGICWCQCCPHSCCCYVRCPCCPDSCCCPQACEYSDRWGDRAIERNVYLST

T4: human C1ORF32-HA tagged protein (SEQ ID NO: 22) (human)
T4 chain: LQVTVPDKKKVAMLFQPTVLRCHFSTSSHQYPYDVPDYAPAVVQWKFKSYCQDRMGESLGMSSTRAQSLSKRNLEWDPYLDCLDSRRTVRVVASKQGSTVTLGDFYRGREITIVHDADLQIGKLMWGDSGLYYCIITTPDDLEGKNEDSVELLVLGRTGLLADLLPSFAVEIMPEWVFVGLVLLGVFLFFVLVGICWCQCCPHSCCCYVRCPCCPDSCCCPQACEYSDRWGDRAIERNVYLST

T5: mouse C1ORF32-Flag tagged protein (SEQ ID NO: 21) (mouse, UniProt B5TVM2 36-661)
T5 sequence: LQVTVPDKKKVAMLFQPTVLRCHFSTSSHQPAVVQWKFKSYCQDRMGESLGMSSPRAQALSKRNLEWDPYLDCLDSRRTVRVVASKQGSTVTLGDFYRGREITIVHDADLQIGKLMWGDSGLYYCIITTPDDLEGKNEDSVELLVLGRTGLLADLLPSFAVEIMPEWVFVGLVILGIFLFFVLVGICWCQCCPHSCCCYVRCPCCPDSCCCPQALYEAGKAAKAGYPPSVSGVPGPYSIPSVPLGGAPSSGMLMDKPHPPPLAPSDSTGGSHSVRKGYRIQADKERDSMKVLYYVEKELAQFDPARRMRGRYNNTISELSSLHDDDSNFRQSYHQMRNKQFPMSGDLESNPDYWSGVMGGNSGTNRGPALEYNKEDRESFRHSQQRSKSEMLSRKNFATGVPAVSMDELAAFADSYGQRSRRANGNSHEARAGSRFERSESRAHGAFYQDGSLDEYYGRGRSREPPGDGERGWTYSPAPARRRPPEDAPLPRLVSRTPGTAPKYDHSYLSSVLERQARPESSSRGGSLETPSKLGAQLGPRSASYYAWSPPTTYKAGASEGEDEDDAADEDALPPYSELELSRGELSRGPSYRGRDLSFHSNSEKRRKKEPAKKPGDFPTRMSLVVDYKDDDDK

T6: chimeric mouse-human C1ORF32 (SEQ ID NO: 8) (chimeric mouse (ECD) / human (tail), UniProt B5TVM2 36-249)
T6 construct: also called mouse-human chimeric C1ORF32; chimeric human-mouse C1ORF32
T6 chain: T3 sequence with T55P, S59A

B1: anti C1ORF32 monoclonal antibody 5166-2 (antibody, V domains shown)
VH: QIQLVQSGPELKKPGETVKISCKASAYTFTDYSMHWVKQAPGKGLKWMGWINTETGEPTYAGDFKGRFAFSLETSASTAYLQINNLKNEDTATYFCVRAGYYDYFDYWGQGTTLTVSS
VL: DIVMTQSHKFMSTSVGDRVSITCKASQDVVTAVAWYQQKPGQSPKLLIYWASNRHTGVPDRFTGSGSGTDFTLTITNVQSEDLADYFCQQYSSYPLTFGGGTKLEIK
notes: Murine IgG1 k from a hybridoma
B2: anti C1ORF32 monoclonal antibody 5159-2 (antibody, V domains shown)
VH: QVTLKESDPGILQPSQTLSLTCSFSGFSLSTSGMGVGWIRQPSGKGLEWLAHIWWDDVKRYNSALKNRLTISKDTSSSQVFLKIANVDTADTATYYCARIARHFFDYWGQGTTLTVSS
VL: DIKMTQSPSSMYASLGERVTITCKASQDIHGYLSWFHQKPVKSPKTLIYRANRLIDGVPSRFSGSGSGQDYFLTISSLEYEDMGIYYCLQYDEFPWTFGGGTKLEIK
notes: as for B1
B3: anti C1ORF32 monoclonal antibody 5159-1 (antibody, V domains shown)
VH: QVTLKESGPGILQPSQTLNLTCSFSGFSLSSSYMGVGWIRQPSGKGLEWLAHIWWDDVKRYNPALKSRLTISKDISNNQVFLKIASVDTADSATYYCGRIDRHYFDYWGQGTILTVSS
VL: B2 VL with M11I, H30N, S34T, H37Q, V41G, I55L, F72S, E79D
notes: as for B1
B4: anti C1ORF32 monoclonal antibody 5166-9 (antibody, V domains shown)
VH: EVKMVESGGGLVQPGGSLKLSCATSGFTFSDYYMYWVRQTPEKRLEWVAYISNGGGSTYYPDTVKGRFTISRDNAKNTLYLQMSRLKSEDTAMYYCARQGYYYGSSPFAYWGQGTLVTVSA
VL: DIVMTQSHKFMSTSVGDRVSITCKASQDVSTAVAWYQQKPGQSPKLLIYSASYRYTGVPDRFTGSGSGTDFTFTISSVQAEDLAVYYCQQHYSTPYTFGGGTKLEIK
notes: Murine IgM k from a hybridoma

Key:
[1] = molecular target: C1ORF32-ECD-hIgG1 fusion protein (SEQ ID NO: 23); assay: hybridoma binding screen by ELISA on fusion proteins SEQ ID NO: 23 and SEQ ID NO: 24 or on HEK293T cells over expressing C1ORF32
Protocol: (§1) Binding screening was performed by ELISA using fusion proteins C1ORF32-ECD-hIgG1 (SEQ ID NO: 23) and C1ORF32-ECD-mIgG2a (SEQ ID NO: 24) or stable pool of HEK293T cells over expressing C1ORF32 described in section “Generation of stable pools expressing C1ORF32 protein” herein. […] Hybridomas were stabilized, subcloned and processed for antibody production and purification.

[2] = molecular target: T1, C1ORF32-ECD-mIgG2a fusion protein (SEQ …); assay: as above
Protocol: as §1

[3] = molecular target: T2, C1ORF32-ECD-mouse IgG2a-fused protein …; assay: hybridoma binding screen by ELISA on ECD-mIgG2a fusion protein (SEQ ID NO: 4) or on HEK-293T cells over expressing C1ORF32
Source text: Three positive clones were further processed for subcloning in order to establish stable hybridoma clones. Hybridomas were stabilized, subcloned and processed for antibody production and purification.

[4] = molecular target: T3, human C1ORF32 protein (SEQ ID NO: 1); assay: flow cytometry on HEK293T cells expressing human C1ORF32 untagged (SEQ ID NO: 1), antibody 20 ug/ml, anti mouse DyLight 549 secondary
Protocol: (§2) FIG. 5A presents empty vector transfected cells; FIG. 5B presents human-C1ORF32 transfected cells (SEQ ID NO:1), FIG. 5C presents human-C1ORF32-HA tagged transfected cells(SEQ ID NO: 22); FIG. 5D presents chimeric mouse-human C1ORF32 transfected cells (SEQ ID NO: 8); FIG. 5E presents mouse C1ORF32 transfected cells (SEQ ID NO: 21).
(§3) Flow Cytometry analysis was performed to verify the mAbs binding to native cell surfaced C1ORF32 protein (SEQ ID NO: 1) in stable transfected cells described above. […] Anti-Cephalosporin served as negative control (SLRC, CH2025P). Recombinant HEK293T cells expressing C1ORF32 proteins, i.e. human C1ORF32 (SEQ ID NO:1), chimeric human-mouse C1ORF32 (SEQ ID NO:8) and mouse C1ORF32—Flag tagged (SEQ ID NO:21) were stained with anti C1ORF32 antibodies or anti-Cephalosporin followed by Donkey Anti Mouse-DyLight 549 conjugated secondary Ab (Jackson 715-506-150) as described in Example 6, herein. Fluorescent signal was observed.

[5] = molecular target: T4, human C1ORF32-HA tagged protein (SEQ ID …); assay: flow cytometry on HEK293T cells expressing human C1ORF32-HA tagged (SEQ ID NO: 22), antibody 20 ug/ml, anti mouse DyLight 549 secondary
Protocol: as §2, §3

[6] = molecular target: T5, mouse C1ORF32-Flag tagged protein (SEQ …); assay: flow cytometry on HEK293T cells expressing mouse C1ORF32-Flag (SEQ ID NO: 21; panel title: 293-C1ORF32 HA MOUSE CELLS), antibody 20 ug/ml, anti mouse DyLight 549 secondary
Protocol: as §2, §3

[7] = molecular target: T6, chimeric mouse-human C1ORF32 (SEQ ID …); assay: flow cytometry on HEK293T cells expressing chimeric mouse-human C1ORF32 (SEQ ID NO: 8; panel title: 293T-C1ORF32 HA MUTATED CELLS), antibody 20 ug/ml, anti mouse DyLight 549 secondary
Protocol: as §2, §3

[8] = molecular target: T3, human C1ORF32 protein (SEQ ID NO: 1); assay: flow cytometry titration of 5159-1 on CHOK1 cells expressing human C1ORF32
Protocol: (§4) The cells were washed once in FACS buffer, re-suspended in 25 ul of Alexa Fluor 647 conjugated F(ab′)2 fragment of goat anti mouse IgG (Jackson Immunoresearch cat#115-606-146) for 30 minutes at 4 degrees C. The cells were washed again in FACS buffer, re-suspended in 35 ul of FACS buffer and 35 ul of 4% paraformaldehyde and analysed on either a FACS Calibur or an Intellicyt HTFC. Data was analyzed by FlowJo, Excel and GraphPad Prism.

[9] = molecular target: T3, human C1ORF32 protein (SEQ ID NO: 1); assay: flow cytometry titration of 5159-1 on HEK293T cells expressing human C1ORF32
Protocol: as §4

[10] = molecular target: T3, human C1ORF32 protein (SEQ ID NO: 1); assay: cell-based or functional assay

| Binder | binding result [1] | binding result [2] | binding result [3] | binding result [4] | binding result [5] | binding result [6] | binding result [7] | EC50 (read off the curve) [8] [µg/mL] | EC50 (read off the curve) [9] [µg/mL] | CDC activity, EC50, on CHOK1 cells expressing C1ORF32 (CellTiter-Glo viability, rabbit complement, 1 hr) [10] | CDC activity, EC50, on HEK293T cells expressing C1ORF32 (CellTiter-Glo viability, rabbit complement, 1 hr) [10] |
| --- | --- | --- | --- | --- | --- | --- | --- | --- | --- | --- | --- |
| B1 | binds | binds |  |  |  |  |  |  |  |  |  |
| B2 |  |  | binds | binds | binds | binds | binds |  |  |  |  |
| B3 |  |  | binds |  | binds |  | binds | ~1 | ~0.8 |  |  |
| B4 | binds | binds |  |  |  |  |  |  |  | 33 ng/ml and 0.2 nM | 1.8 ng/ml and 0.01 nM |
